Test results published in FireProtDB (doi:10.1110/ps.0237703).

Conditions: pH 8, Thermal, CD, Bis-Tris propane ammonium acetate 0.05 M 0.05 M, reversible: No, whole UniProt chain shown

B1: wild type, Q8NJZ1 (protein)
chain: MKANIVILSLFAPLAAVAQTLCGQYSSNTQGGYIFNNNMWGMGSGSGSQCTYVDKVWAEGVAWHTDWSWSGGDNNVKSYPYSGRELGTKRIVSSIKSISSGADWDYTGSNLRANAAYDIFTSANPNHATSSGDYEVMIWLGRYGGVYPIGNSIGTVRAAGRDWALHIGYNGAMKVFSFVAANPVTRFDGEIMDFFYLLRDMQGYPMTSQYLLTLQFGTEPFTGSGAKFNCWYFGATLSYW
Tm (Bionectria ochroleuca): 45.9 °C

B2: wild type, Q8NJY6 (protein)
chain: MKFLQVLPAILPAALAQTSCDQYATFSGNGYIVSNNLWGASAGSGFGCVTSVSLNGAASWHADWQWSGGQNNVKSYQNVQINIPQKRTVNSIGSMPTTASWSYSGSDIRANVAYDLFTAANPNHVTYSGDYELMIWLGKYGDIGPIGSSQGTVNVGGQTWTLYYGYNGAMQVYSFVAQSNTTSYSGDVKNFFNYLRDNKGYNAGGQYVLSYQFGTEPFTGSGTLNVASWTASIN
Tm (Trichoderma citrinoviride): 49.2 °C

B3: wild type, O00095 (protein)
chain: MKFLQVLPALIPAALAQTSCDQWATFTGNGYTVSNNLWGASAGSGFGCVTAVSLSGGASWHADWQWSGGQNNVKSYQNSQIAIPQKRTVNSISSMPTTASWSYSGSNIRANVAYDLFTAANPNHVTYSGDYELMIWLGKYGDIGPIGSSQGTVNVGGQSWTLYYGYNGAMQVYSFVAQTNTTNYSGDVKNFFNYLRDNKGYNAAGQYVLSYQFGTEPFTGSGTLNVASWTASIN
Tm (Hypocrea jecorina): 54.4 °C
